Article PMC3919607 (Nucleic Acids Research, 2013)

B2: Snu13p (recombinant, GST cleaved off) (natural protein, S. cerevisiae)
chain: GPMSAPNPKAFPLADAALTQQILDVVQQAANLRQLKKGANEATKTLNRGISEFIIMAADCEPIEILLHLPLLCEDKNVPYVFVPSRVALGRACGVSRPVIAASITTNDASAIKTQIYAVKDKIETLLI

Legend:
[1] = molecular target: T1, His6-tagged WT Snu13p (co-expression) (S. cerevisiae, UniProt P39990 1-126); assay: pull-down
T1 sequence (looked up): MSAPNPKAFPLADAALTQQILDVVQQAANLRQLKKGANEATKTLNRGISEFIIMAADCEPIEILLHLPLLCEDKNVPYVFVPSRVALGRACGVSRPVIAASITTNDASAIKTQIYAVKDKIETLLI

His6Rsa1p230–381 = molecular target: T2, His6Rsa1p230–381 (S. cerevisiae, UniProt Q08932 230-381); assay: native gel or EMSA
T2 sequence (looked up): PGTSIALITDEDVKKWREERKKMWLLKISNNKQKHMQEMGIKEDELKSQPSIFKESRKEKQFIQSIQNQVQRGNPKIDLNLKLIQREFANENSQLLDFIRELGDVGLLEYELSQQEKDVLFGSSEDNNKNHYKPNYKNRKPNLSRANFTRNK

[2] = molecular target: B2; assay: ITC

B1: full-length Rsa1p (co-expression) (natural protein, S. cerevisiae, UniProt Q08932 1-381, looked up)
chain: MNYNNFENSKGDGHSRLPKPTYSGTLSDGYDESKIKRQKTDSAFNAAYSPHMYPNSPYYEGSWNTGYTPQLHHVAPHNQYFHPIQPSTQYNYTSPPNYTENYIPPVHQNISYAPALNLQKWPSSYCENTQALKNDKDYQTSISYEDVAIPTVKEIQLIEKNRGKDTFMNEISPVPSSKDQASAEPTEIPRKDPELANSNAEDDHNNLGLEDDDRDEQLESEGLGKVVLVPGTSIALITDEDVKKWREERKKMWLLKISNNKQKHMQEMGIKEDELKSQPSIFKESRKEKQFIQSIQNQVQRGNPKIDLNLKLIQREFANENSQLLDFIRELGDVGLLEYELSQQEKDVLFGSSEDNNKNHYKPNYKNRKPNLSRANFTRNK
In the case of B1, the “stoichiometry N” value [1] is reported as roughly 1.

B2: binds (His6Rsa1p230–381).

TDEDVKKWREERKKMWLLKISN (peptide, UniProt Q08932 238-259, looked up) [synthetic peptide Rsa1p238–259] showed a Kd [2] of 18 ± 1 µM.
